Measured values as given in the supplement of paper PMC9732359.
± gives the uncertainty stated by the source.

Assay: protein stability index of a GFP-peptide fusion (yeast GPS) (PSI 1-4); higher = more stable; sorted into four equal gates, so the index is relative within each strain
Procedure, shortened: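 Yeast carrying a pooled library were grown to mid-log phase in leucine-free medium. Each library plasmid expresses Cherry and has a tiled 17-residue yeast protein peptide fused downstream of GFP. Cells were sorted into four equal gates by GFP/Cherry ratio, and plasmids from each gate were PCR-amplified, Illumina-sequenced and assigned to strains by barcode. Summing, across gates, the read frequency times the gate number gave each peptide's protein stability index.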

## MSVSDNDQALIKVLLRQ [RET1]
doa10∆
  protein stability index: 2.48 ± 0.052
pdr5∆
  protein stability index: 2.62 ± 0.069
san1∆
  protein stability index: 2.71 ± 0.067
ubr1∆
  protein stability index: 2.6 ± 0.053

## TIGAIFLNHAFDYMNRY [CDC53]
doa10∆
  protein stability index: 2.04 ± 0.065
pdr5∆
  protein stability index: 2.1 ± 0.066
san1∆
  protein stability index: 1.78 ± 0.076
ubr1∆
  protein stability index: 1.89 ± 0.046

## AKDKEIYNKMIGVLNNS [RPN13]
doa10∆
  protein stability index: 2.6 ± 0.084
pdr5∆
  protein stability index: 2.94 ± 0.1
san1∆
  protein stability index: 2.72 ± 0.053
ubr1∆
  protein stability index: 2.93 ± 0.065

## EHIKQDYVASLNELYQT [NSL1]
doa10∆
  protein stability index: 2.91 ± 0.062
pdr5∆
  protein stability index: 3.1 ± 0.057
san1∆
  protein stability index: 2.84 ± 0.047
ubr1∆
  protein stability index: 2.88 ± 0.053

## WNRADNHFKDTYGFSIL [FAS1]
doa10∆
  protein stability index: 3.07 ± 0.12
pdr5∆
  protein stability index: 2.57 ± 0.069
san1∆
  protein stability index: 3.35 ± 0.083
ubr1∆
  protein stability index: 3.27 ± 0.092

## LEKGEIELSDGSTFKVN [YJL039C/NUP192]
doa10∆
  protein stability index: 3.02 ± 0.079
pdr5∆
  protein stability index: 3.1 ± 0.067
san1∆
  protein stability index: 2.83 ± 0.073
ubr1∆
  protein stability index: 2.95 ± 0.052

## TQPKAEATQDDDFDMLF [NUT1]
doa10∆
  protein stability index: 2.73 ± 0.069
pdr5∆
  protein stability index: 3.15 ± 0.051
san1∆
  protein stability index: 2.99 ± 0.053
ubr1∆
  protein stability index: 3.14 ± 0.043

## NVIRSLEQEYRLILLLN [RMP1]
doa10∆
  protein stability index: 1.44 ± 0.036
pdr5∆
  protein stability index: 1.19 ± 0.022
san1∆
  protein stability index: 1.29 ± 0.071
ubr1∆
  protein stability index: 1.35 ± 0.038

## KVAQLRQTGPAKINEVY [NSL1]
doa10∆
  protein stability index: 2.97 ± 0.14
pdr5∆
  protein stability index: 3.04 ± 0.15
san1∆
  protein stability index: 2.84 ± 0.1
ubr1∆
  protein stability index: 3.58 ± 0.11

## IEQLFPVRPVRVRHEDV [RPC53]
doa10∆
  protein stability index: 2.9 ± 0.076
pdr5∆
  protein stability index: 2.97 ± 0.048
san1∆
  protein stability index: 2.89 ± 0.055
ubr1∆
  protein stability index: 3.03 ± 0.037

## VTKETVHPRKSYKMNSS [PRP8]
doa10∆
  protein stability index: 3.03 ± 0.11
pdr5∆
  protein stability index: 3.02 ± 0.086
san1∆
  protein stability index: 2.96 ± 0.048
ubr1∆
  protein stability index: 2.9 ± 0.065

## MNHDPFSWGRPADSTYG [PRE4]
doa10∆
  protein stability index: 3.05 ± 0.086
pdr5∆
  protein stability index: 3.28 ± 0.087
san1∆
  protein stability index: 3.15 ± 0.057
ubr1∆
  protein stability index: 3.22 ± 0.052

## KYYIVSSSKSMINDENY [SRB8]
doa10∆
  protein stability index: 2.91 ± 0.073
pdr5∆
  protein stability index: 2.76 ± 0.056
san1∆
  protein stability index: 2.43 ± 0.083
ubr1∆
  protein stability index: 2.81 ± 0.04

## RENLHILNEVFTNPSIV [RRP6]
doa10∆
  protein stability index: 2.26 ± 0.076
pdr5∆
  protein stability index: 2.93 ± 0.063
san1∆
  protein stability index: 2.5 ± 0.058
ubr1∆
  protein stability index: 2.25 ± 0.053

## FKVYEPLLLVGLDKFSN [RPS16A]
doa10∆
  protein stability index: 1.72 ± 0.058
pdr5∆
  protein stability index: 1.96 ± 0.055
san1∆
  protein stability index: 1.85 ± 0.074
ubr1∆
  protein stability index: 2.14 ± 0.043

## ASGSINRKVLQALEKIG [RPS19A]
doa10∆
  protein stability index: 1.39 ± 0.071
pdr5∆
  protein stability index: 2 ± 0.12
san1∆
  protein stability index: 1.67 ± 0.11
ubr1∆
  protein stability index: 1.99 ± 0.066

## TINISLSFSWAILLIIN [NUT1]
doa10∆
  protein stability index: 1.35 ± 0.06
pdr5∆
  protein stability index: 1.61 ± 0.054
san1∆
  protein stability index: 1.93 ± 0.078
ubr1∆
  protein stability index: 2.43 ± 0.044

## EEEESILIAMQPEDLEP [RPB2]
san1∆
  protein stability index: 2.33 ± 0.13

## KFRSSILRKSFDFLMNM [RPN2]
doa10∆
  protein stability index: 2.1 ± 0.13
pdr5∆
  protein stability index: 2.4 ± 0.1
san1∆
  protein stability index: 2.04 ± 0.12
ubr1∆
  protein stability index: 2.4 ± 0.072

## DKLINDVTAIQTWSYLS [ECM29]
doa10∆
  protein stability index: 1.77 ± 0.04
pdr5∆
  protein stability index: 1.78 ± 0.04
san1∆
  protein stability index: 1.74 ± 0.087
ubr1∆
  protein stability index: 1.83 ± 0.044

## LKKLQSDIESANNQEYD [SMC1]
doa10∆
  protein stability index: 3.19 ± 0.076
pdr5∆
  protein stability index: 3.2 ± 0.097
san1∆
  protein stability index: 3.16 ± 0.062
ubr1∆
  protein stability index: 3.13 ± 0.076

## KWKPVLSHIVYFLVLSP [RPN5]
doa10∆
  protein stability index: 1.39 ± 0.033
pdr5∆
  protein stability index: 1.25 ± 0.031
san1∆
  protein stability index: 1.2 ± 0.057
ubr1∆
  protein stability index: 1.15 ± 0.025

## MENNEPAMAMEDLKNFI [SRB8]
doa10∆
  protein stability index: 3.18 ± 0.074
pdr5∆
  protein stability index: 3.29 ± 0.081
san1∆
  protein stability index: 3.24 ± 0.043
ubr1∆
  protein stability index: 3.08 ± 0.068

## LNRIINHMLIDSLNQLE [RGR1]
doa10∆
  protein stability index: 3.24 ± 0.15
pdr5∆
  protein stability index: 2.96 ± 0.23
san1∆
  protein stability index: 2.89 ± 0.18
ubr1∆
  protein stability index: 2.68 ± 0.19

## EEAKSVLPAATKKKSKF [ARP9]
doa10∆
  protein stability index: 2.1 ± 0.062
pdr5∆
  protein stability index: 2.25 ± 0.043
san1∆
  protein stability index: 2.04 ± 0.06
ubr1∆
  protein stability index: 2.31 ± 0.036

## PDLPALEASYSKSYTPR [SMC4]
doa10∆
  protein stability index: 2.28 ± 0.064
pdr5∆
  protein stability index: 3.02 ± 0.088
san1∆
  protein stability index: 2.75 ± 0.1
ubr1∆
  protein stability index: 2.6 ± 0.071

## TPDATKIKAILESVGIE [RPP2A]
doa10∆
  protein stability index: 2.31 ± 0.084
pdr5∆
  protein stability index: 3.2 ± 0.16
san1∆
  protein stability index: 3.08 ± 0.12
ubr1∆
  protein stability index: 3.18 ± 0.063

## TTIGDTTDKNTTDDKSM [BRN1]
doa10∆
  protein stability index: 3.24 ± 0.082
pdr5∆
  protein stability index: 3.33 ± 0.059
san1∆
  protein stability index: 3.44 ± 0.044
ubr1∆
  protein stability index: 3.27 ± 0.043

## MNNQPQGTNSVPNSIGN [SNF5]
doa10∆
  protein stability index: 2.87 ± 0.074
pdr5∆
  protein stability index: 3.1 ± 0.096
san1∆
  protein stability index: 3.04 ± 0.12
ubr1∆
  protein stability index: 2.92 ± 0.055

## EGQENNYNSTSRSTEKK [SIR4]
doa10∆
  protein stability index: 3.3 ± 0.17
pdr5∆
  protein stability index: 3.26 ± 0.13
san1∆
  protein stability index: 2.65 ± 0.17
ubr1∆
  protein stability index: 3.25 ± 0.11

## RSATGAKRAQFRKKRKF [RPS8A]
doa10∆
  protein stability index: 2.94 ± 0.1
pdr5∆
  protein stability index: 2.5 ± 0.085
san1∆
  protein stability index: 3.42 ± 0.096
ubr1∆
  protein stability index: 2.68 ± 0.073

## EGLIRLDNLTEDPNSAA [DIS3]
doa10∆
  protein stability index: 3.23 ± 0.066
pdr5∆
  protein stability index: 3.31 ± 0.061
san1∆
  protein stability index: 3.229 ± 0.032
ubr1∆
  protein stability index: 3.185 ± 0.031

## GFIENCNGSALVEARSL [MTR3]
doa10∆
  protein stability index: 2.66 ± 0.1
pdr5∆
  protein stability index: 2.83 ± 0.085
san1∆
  protein stability index: 2.23 ± 0.12
ubr1∆
  protein stability index: 2.15 ± 0.12

## RVERSSRSTDNFHNSKK [RRI1]
doa10∆
  protein stability index: 3.31 ± 0.076
pdr5∆
  protein stability index: 3.25 ± 0.078
san1∆
  protein stability index: 2.99 ± 0.082
ubr1∆
  protein stability index: 3.08 ± 0.057

## LVRSIIAFDDLIENKIQ [RPN8]
doa10∆
  protein stability index: 1.94 ± 0.075
pdr5∆
  protein stability index: 1.92 ± 0.12
san1∆
  protein stability index: 2.45 ± 0.082
ubr1∆
  protein stability index: 2.43 ± 0.099

## KKEKLKQENSTLLKKAN [RPC82]
doa10∆
  protein stability index: 2.3 ± 0.074
pdr5∆
  protein stability index: 2.81 ± 0.093
san1∆
  protein stability index: 2.71 ± 0.12
ubr1∆
  protein stability index: 2.85 ± 0.075

## QQMQPPNSSANNNPLQQ [GAL11]
doa10∆
  protein stability index: 3.02 ± 0.055
pdr5∆
  protein stability index: 2.9 ± 0.05
san1∆
  protein stability index: 2.89 ± 0.041
ubr1∆
  protein stability index: 2.95 ± 0.048

## LSQNESTRASTVPNLPT [ISW2]
doa10∆
  protein stability index: 2.17 ± 0.056
pdr5∆
  protein stability index: 2.5 ± 0.063
san1∆
  protein stability index: 2.46 ± 0.045
ubr1∆
  protein stability index: 2.6 ± 0.048

## ETIQADLNHVTEELQTQ [SMC2]
doa10∆
  protein stability index: 3.21 ± 0.14
pdr5∆
  protein stability index: 3.21 ± 0.06
san1∆
  protein stability index: 3.02 ± 0.066
ubr1∆
  protein stability index: 3.01 ± 0.1

## IGHLIKTRFKGSQFIVV [SMC2]
doa10∆
  protein stability index: 3.5 ± 0.12
pdr5∆
  protein stability index: 3.05 ± 0.084
san1∆
  protein stability index: 3.38 ± 0.087
ubr1∆
  protein stability index: 3.14 ± 0.08

## LLALRERRMQVTAEDFK [RPT2]
doa10∆
  protein stability index: 2.79 ± 0.13
pdr5∆
  protein stability index: 2.8 ± 0.17
san1∆
  protein stability index: 2.89 ± 0.11
